This note sets out measurements from patent US20240310359A1.

The target in the assay is SERCA1a, mouse (endogenous, differentiated skeletal muscle cells) (mouse) (UniProt Q8R429). The assay can be described thus: cell-based or functional assay.
Chain of SERCA1a, mouse (endogenous, differentiated skeletal muscle cells) (mouse) (Q8R429 whole entry): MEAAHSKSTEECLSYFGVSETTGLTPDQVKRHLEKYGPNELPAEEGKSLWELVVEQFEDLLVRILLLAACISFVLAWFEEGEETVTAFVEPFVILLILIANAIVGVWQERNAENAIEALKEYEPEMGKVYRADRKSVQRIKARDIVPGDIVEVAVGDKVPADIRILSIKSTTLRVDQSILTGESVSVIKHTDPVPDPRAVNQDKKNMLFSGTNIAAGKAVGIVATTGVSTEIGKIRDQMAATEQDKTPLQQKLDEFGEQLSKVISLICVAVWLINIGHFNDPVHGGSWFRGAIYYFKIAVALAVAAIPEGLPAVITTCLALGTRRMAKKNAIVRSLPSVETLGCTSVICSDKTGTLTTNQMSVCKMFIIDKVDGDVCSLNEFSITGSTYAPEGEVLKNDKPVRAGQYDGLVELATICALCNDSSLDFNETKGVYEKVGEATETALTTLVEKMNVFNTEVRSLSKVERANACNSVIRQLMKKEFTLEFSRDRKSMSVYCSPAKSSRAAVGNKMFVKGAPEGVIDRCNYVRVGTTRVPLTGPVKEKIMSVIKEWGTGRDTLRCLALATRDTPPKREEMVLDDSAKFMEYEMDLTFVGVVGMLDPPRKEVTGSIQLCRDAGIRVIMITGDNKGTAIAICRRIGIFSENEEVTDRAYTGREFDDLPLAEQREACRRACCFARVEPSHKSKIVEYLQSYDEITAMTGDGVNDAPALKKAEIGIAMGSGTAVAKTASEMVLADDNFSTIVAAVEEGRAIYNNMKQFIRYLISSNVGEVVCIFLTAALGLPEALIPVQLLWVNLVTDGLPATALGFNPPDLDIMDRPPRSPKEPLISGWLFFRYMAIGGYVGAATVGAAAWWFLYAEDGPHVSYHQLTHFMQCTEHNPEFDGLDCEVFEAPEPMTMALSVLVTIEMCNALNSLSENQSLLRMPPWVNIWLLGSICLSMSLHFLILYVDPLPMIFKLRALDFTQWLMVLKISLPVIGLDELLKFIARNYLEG

Chain of NHL-Del (mutant of TRIM32 without NHL repeats, expressed from pEGFP-N1 in mouse differentiated skeletal muscle cells) (Q13049 1-361, stated change not applied): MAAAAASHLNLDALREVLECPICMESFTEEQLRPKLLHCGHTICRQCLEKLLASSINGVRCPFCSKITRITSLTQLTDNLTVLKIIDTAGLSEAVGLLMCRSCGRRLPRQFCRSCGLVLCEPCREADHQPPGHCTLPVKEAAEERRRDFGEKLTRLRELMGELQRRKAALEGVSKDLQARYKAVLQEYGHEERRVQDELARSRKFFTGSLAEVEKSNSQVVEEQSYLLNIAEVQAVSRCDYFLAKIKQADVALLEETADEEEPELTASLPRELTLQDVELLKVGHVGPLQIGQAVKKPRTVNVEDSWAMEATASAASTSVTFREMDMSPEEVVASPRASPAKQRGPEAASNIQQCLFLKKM
Chain of wild-type TRIM32 (expressed from pEGFP-N1 in mouse differentiated skeletal muscle cells) (from UniProt Q13049 1-653) (enzyme) (Q13049 whole entry): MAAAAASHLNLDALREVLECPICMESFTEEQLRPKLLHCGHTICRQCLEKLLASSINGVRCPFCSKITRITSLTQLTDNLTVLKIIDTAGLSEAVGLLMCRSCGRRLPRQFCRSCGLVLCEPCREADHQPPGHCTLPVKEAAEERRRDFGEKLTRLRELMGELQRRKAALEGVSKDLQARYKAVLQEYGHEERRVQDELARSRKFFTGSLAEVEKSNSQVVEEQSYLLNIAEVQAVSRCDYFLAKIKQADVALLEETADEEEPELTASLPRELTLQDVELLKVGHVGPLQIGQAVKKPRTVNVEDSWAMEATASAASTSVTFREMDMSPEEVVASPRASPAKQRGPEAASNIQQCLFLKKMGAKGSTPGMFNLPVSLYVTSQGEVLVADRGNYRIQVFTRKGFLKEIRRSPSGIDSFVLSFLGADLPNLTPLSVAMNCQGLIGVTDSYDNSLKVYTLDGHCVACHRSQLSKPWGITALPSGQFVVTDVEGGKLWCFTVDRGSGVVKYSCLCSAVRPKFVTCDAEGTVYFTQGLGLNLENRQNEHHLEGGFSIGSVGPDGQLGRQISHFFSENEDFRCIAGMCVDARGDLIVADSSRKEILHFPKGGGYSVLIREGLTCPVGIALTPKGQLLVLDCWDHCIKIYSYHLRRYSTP
Chain of wild-type TRIM32 (expressed from pEGFP-N1 in mouse differentiated skeletal muscle cells) (from UniProt Q13049 1-653) (Q13049 whole entry): as above

In the case of “wild-type TRIM32 (expressed from pEGFP-N1 in mouse differentiated skeletal muscle cells) (from UniProt Q13049 1-653)”, the Caffeine response (normalized ratio to vector control) was determined as 1.22.

“wild-type TRIM32 (expressed from pEGFP-N1 in mouse differentiated skeletal muscle cells) (from UniProt Q13049 1-653) (enzyme)”: the KCl response (normalized ratio to vector control) is 1.27 and the Releasable Ca^2+ level from SR (normalized ratio to vector control) amounted to 1.48.

Take “NHL-Del (mutant of TRIM32 without NHL repeats, expressed from pEGFP-N1 in mouse differentiated skeletal muscle cells) (from UniProt Q13049 1-361) (enzyme)”: the Caffeine response (normalized ratio to vector control) was found to be 0.97, the KCl response (normalized ratio to vector control) was 0.94 and the Releasable Ca^2+ level from SR (normalized ratio to vector control) was determined as 0.99.
